Target: Fas on Jurkat cells (cell line from human T cell) (human) (UniProt P25445)
Test: cell-based or functional assay

UniProt P25445, sequence (P25445 26-335): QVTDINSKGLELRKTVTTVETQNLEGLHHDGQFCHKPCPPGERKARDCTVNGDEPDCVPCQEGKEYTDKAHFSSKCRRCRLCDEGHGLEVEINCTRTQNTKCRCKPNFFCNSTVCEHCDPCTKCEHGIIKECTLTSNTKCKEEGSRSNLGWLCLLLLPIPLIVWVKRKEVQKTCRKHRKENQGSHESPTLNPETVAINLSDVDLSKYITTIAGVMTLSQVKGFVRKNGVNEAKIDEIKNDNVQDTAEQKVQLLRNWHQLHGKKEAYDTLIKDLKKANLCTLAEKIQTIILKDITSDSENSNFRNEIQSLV

apoptosis-inducing activity relative to IleZip-shFasL (WST-1 assay, Jurkat cells): 10 times | apoptosis-inducing activity relative to shFasL (WST-1 assay, Jurkat cells): 100 times
Substance: FLAG-IleZip-shFasL (pM1815), fusion protein of FLAG peptide, leucine zipper and the extracellular domain of human Fas ligand

Source: patent publication US20040053249A1
